Values joined by “and” are separate entries in the source; they are usually repeats but may differ in a detail not shown here. Equal values may be shown once.
B1: peptide "I", binding motif for IL-4Rα, KLAKLAKKLAKLAK (peptide)
peptide: KLAKLAKKLAKLAK
B2: peptide "F", binding motif for FGFR3, VSPPLTLGQLLS (peptide)
peptide: VSPPLTLGQLLS

Tests used:
[1] = target: interleukin-4 receptor alpha (IL-4Rα); experiment: binding affinity, method not stated
[2] = target: T1, fibroblast growth factor receptor 3 (FGFR3); experiment: binding affinity, method not stated
T1 chain: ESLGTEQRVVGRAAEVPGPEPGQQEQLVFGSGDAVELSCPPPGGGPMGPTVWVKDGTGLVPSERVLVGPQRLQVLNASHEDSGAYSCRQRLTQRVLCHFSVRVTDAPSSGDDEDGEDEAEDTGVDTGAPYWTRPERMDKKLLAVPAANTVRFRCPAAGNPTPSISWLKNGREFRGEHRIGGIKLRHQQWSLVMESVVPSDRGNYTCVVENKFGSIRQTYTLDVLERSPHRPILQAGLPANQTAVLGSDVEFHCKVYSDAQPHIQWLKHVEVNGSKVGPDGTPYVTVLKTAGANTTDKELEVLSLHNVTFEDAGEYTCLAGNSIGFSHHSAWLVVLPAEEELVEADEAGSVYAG

Sequence of interleukin-4 receptor alpha (IL-4Rα) (chain, as listed by the source): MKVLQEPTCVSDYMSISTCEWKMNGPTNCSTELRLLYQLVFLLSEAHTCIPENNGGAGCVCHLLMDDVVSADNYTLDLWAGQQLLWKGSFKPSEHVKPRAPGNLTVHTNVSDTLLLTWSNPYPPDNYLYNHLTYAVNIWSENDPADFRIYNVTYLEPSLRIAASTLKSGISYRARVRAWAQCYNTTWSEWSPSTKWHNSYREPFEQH

Binder	Kd [1]	Kd [2]
B1	< 60000 nM and 55900 nM	–
B2	–	~1000 nM and 1000 nM
